Target: T1, mStau2 dsRBD1-2 F157A (Mus musculus, UniProt Q8CJ67 8-181, F157A)
T1 sequence: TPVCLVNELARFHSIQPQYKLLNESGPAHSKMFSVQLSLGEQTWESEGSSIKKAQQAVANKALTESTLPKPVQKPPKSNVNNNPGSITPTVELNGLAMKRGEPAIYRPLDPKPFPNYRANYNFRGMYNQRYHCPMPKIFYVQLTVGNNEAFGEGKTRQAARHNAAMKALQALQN
Assay: SPR; Hill n 1.5; stable kinetics; SPR: HBS-EP (10 mM HEPES pH 7.4, 150 mM NaCl, 3 mM EDTA, 0.005% P20); EMSA: 5 nM RNA, protein buffer (40 mM Bis-Tris pH 7, 150 mM NaCl, 2 mM DTT presumed), 4% glycerol, 30 ug/mL yeast tRNA, RT; NMR: 150 mM NaCl, 20 mM Na phosphate pH 7.0, 5 mM DTT, 298 K
Settings: protein: recombinant; label: 5' 32P (EMSA); biotin (SPR); hairpin, 18 bp stem

Binder: GGUAUAUACAUGCACAUGCAAUUUGUGUAUGUGUAUGUAUAUA (structured_RNA) [SRS2+5]
- Kd: 497 ± 238 nM

Reference: paper PMC6477676, “Staufen2-mediated RNA recognition and localization requires combinatorial action of multiple domains”
